The values below are quoted from earlier work in patent publication US20200069786A1, “COMPOSITION AND PROCESS FOR PREPARING VACCINE” (TREOS BIO ZRT., priority 2018, published 2020).

Like-named read-outs stand apart in the source and are kept apart here.

This data set has as its system TSA.
Setting [1] is: TSA expression rate in Esophageal.
Setting [2] is: TSA expression rate in PROSTATE cancer.
The mark [3] stands for this setting: TSA expression rate in BLADDER cancer.
[4] abbreviates: TSA expression rate in HEAD and NECK.
Setting [5] is: TSA expression rate in LUNG cancer.
Where [6] appears, read: TSA expression rate in MELANOMA
Where [7] appears, read: TSA expression rate in GASTRIC cancer.
The mark [8] stands for this setting: TSA expression rate in LEUKEMIAS
The mark [9] stands for this setting: TSA expression rate in LYMPHOMAS
Setting [10] is: TSA expression rate in PEDIATRIC

B1: FMR1NB (protein, UniProt Q8N0W7 1-255, looked up)
FMR1 neighbor protein: MSSHRRKAKGRNRRSHRAMRVAHLELATYELAATESNPESSHPGYEAAMADRPQPGWRESLKMRVSKPFGMLMLSIWILLFVCYYLSYYLCSGSSYFVLANGHILPNSENAHGQSLEEDSALEALLNFFFPTTCNLRENQVAKPCNELQDLSESECLRHKCCFSSSGTTSFKCFAPFRDVPKQMMQMFGLGAISLILVCLPIYCRSLFWRSEPADDLQRQDNRVVTGLKKQRRKRKRKSEMLQKAARGREEHGDE
Turning to B1, the “TSA Expression Rate (ER)” value is 55% (BREAST) and 28% (LUNG). Further, the “Expression Rate (ER) %” value runs as follows: under setting [1], 8%; (TSA expression rate in Kidney) 0%; under setting [2], 0%.

B2: TDRD1 (protein, UniProt Q9BXT4 1-1180, looked up)
Tudor domain-containing …: MSVKSPFNVMSRNNLEAPPCKMTEPFNFEKNENKLPPHESLRSPGTLPNHPNFRLKSSENGNKKNNFLLCEQTKQYLASQEDNSVSSNPNGINGEVVGSKGDRKKLPAGNSVSPPSAESNSPPKEVNIKPGNNVRPAKSKKLNKLVENSLSISNPGLFTSLGPPLRSTTCHRCGLFGSLRCSQCKQTYYCSTACQRRDWSAHSIVCRPVQPNFHKLENKSSIETKDVEVNNKSDCPLGVTKEIAIWAERIMFSDLRSLQLKKTMEIKGTVTEFKHPGDFYVQLYSSEVLEYMNQLSASLKETYANVHEKDYIPVKGEVCIAKYTVDQTWNRAIIQNVDVQQKKAHVLYIDYGNEEIIPLNRIYHLNRNIDLFPPCAIKCFVANVIPAEGNWSSDCIKATKPLLMEQYCSIKIVDILEEEVVTFAVEVELPNSGKLLDHVLIEMGYGLKPSGQDSKKENADQSDPEDVGKMTTENNIVVDKSDLIPKVLTLNVGDEFCGVVAHIQTPEDFFCQQLQSGRKLAELQASLSKYCDQLPPRSDFYPAIGDICCAQFSEDDQWYRASVLAYASEESVLVGYVDYGNFEILSLMRLCPIIPKLLELPMQAIKCVLAGVKPSLGIWTPEAICLMKKLVQNKIITVKVVDKLENSSLVELIDKSETPHVSVSKVLLDAGFAVGEQSMVTDKPSDVKETSVPLGVEGKVNPLEWTWVELGVDQTVDVVVCVIYSPGEFYCHVLKEDALKKLNDLNKSLAEHCQQKLPNGFKAEIGQPCCAFFAGDGSWYRALVKEILPNGHVKVHFVDYGNIEEVTADELRMISSTFLNLPFQGIRCQLADIQSRNKHWSEEAITRFQMCVAGIKLQARVVEVTENGIGVELTDLSTCYPRIISDVLIDEHLVLKSASPHKDLPNDRLVNKHELQVHVQGLQATSSAEQWKTIELPVDKTIQANVLEIISPNLFYALPKGMPENQEKLCMLTAELLEYCNAPKSRPPYRPRIGDACCAKYTSDDFWYRAVVLGTSDTDVEVLYADYGNIETLPLCRVQPITSSHLALPFQIIRCSLEGLMELNGSSSQLIIMLLKNFMLNQNVMLSVKGITKNVHTVSVEKCSENGTVDVADKLVTFGLAKNITPQRQSALNTEKMYRMNCCCTELQKQVEKHEHILLFLLNNSTNQNKFIEMKKLLKS
Regarding B2, the “TSA Expression Rate (ER)” value was 38% (BREAST) and 0% (THYROID). Besides, the “Expression Rate (ER) %” value is listed as 29% under setting [3]; 0% (TSA expression rate in CRC); 10% under setting [1]; 22% under setting [4]; 0% (TSA expression rate in Kidney); 5% under setting [5]. The “Expression Rate (ER) %” value under setting [6] is reported as 0% and the “Expression Rate (ER) %” value under setting [2] is 47%.

B3: MAGE-C2 (protein, UniProt Q9UBF1 1-373, looked up)
Melanoma-associated antigen C2: MPPVPGVPFRNVDNDSPTSVELEDWVDAQHPTDEEEEEASSASSTLYLVFSPSSFSTSSSLILGGPEEEEVPSGVIPNLTESIPSSPPQGPPQGPSQSPLSSCCSSFSWSSFSEESSSQKGEDTGTCQGLPDSESSFTYTLDEKVAELVEFLLLKYEAEEPVTEAEMLMIVIKYKDYFPVILKRAREFMELLFGLALIEVGPDHFCVFANTVGLTDEGSDDEGMPENSLLIIILSVIFIKGNCASEEVIWEVLNAVGVYAGREHFVYGEPRELLTKVWVQGHYLEYREVPHSSPPYYEFLWGPRAHSESIKKKVLEFLAKLNNTVPSSFPSWYKDALKDVEERVQATIDTADDATVMASESLSVMSSNVSFSE
Regarding B3, the “TSA Expression Rate (ER)” value is listed as 34% (BRAIN); 19% (BREAST); 37% (HCC); 27% (LUNG); 0% (THYROID). Moreover, the “Expression Rate (ER) %” value reads like this: under setting [3], 19%; (TSA expression rate in CRC) 4%; under setting [1], 11%; under setting [7], 10%; under setting [4], 29%; under setting [8], 37%. For the same molecule, the “Expression Rate (ER) %” value under setting [9] is 0%, the “Expression Rate (ER) %” value under setting [6] is reported as 45%, the “Expression Rate (ER) %” value under setting [10] was 40% and the “Expression Rate (ER) %” value under setting [2] is 6%.

B4: SSX-4 (protein, UniProt O60224 1-188, looked up)
Protein SSX4: MNGDDAFARRPRDDAQISEKLRKAFDDIAKYFSKKEWEKMKSSEKIVYVYMKLNYEVMTKLGFKVTLPPFMRSKRAADFHGNDFGNDRNHRNQVERPQMTFGSLQRIFPKIMPKKPAEEENGLKEVPEASGPQNDGKQLCPPGNPSTLEKINKTSGPKRGKHAWTHRLRERKQLVVYEEISDPEEDDE
Turning to B4, the “TSA Expression Rate (ER)” value (BRAIN) is reported as 4%; the “TSA Expression Rate (ER)” value (BREAST) is 27%; the “TSA Expression Rate (ER)” value (HCC) is 48%; the “TSA Expression Rate (ER)” value (OVARIAN) is 13%; the “TSA Expression Rate (ER)” value (PANCREATIC) is 21%; the “TSA Expression Rate (ER)” value (THYROID) is listed as 0%. The “Expression Rate (ER) %” value is recorded as 11% under setting [3]; 20% (TSA expression rate in Cervical cancer); 7% under setting [1]; 23% under setting [7]; 29% under setting [4]; 0% (TSA expression rate in Kidney). Besides, the “Expression Rate (ER) %” value under setting [8] is on record as 30%; the “Expression Rate (ER) %” value under setting [5] is given as 13%; the “Expression Rate (ER) %” value under setting [9] was 16%; the “Expression Rate (ER) %” value under setting [6] is listed as 21%; the “Expression Rate (ER) %” value under setting [10] is given as 67%.

B5: SCP-1 (protein, UniProt Q15431 1-976, looked up)
Synaptonemal complex protein 1: MEKQKPFALFVPPRSSSSQVSAVKPQTLGGDSTFFKSFNKCTEDDFEFPFAKTNLSKNGENIDSDPALQKVNFLPVLEQVGNSDCHYQEGLKDSDLENSEGLSRVYSKLYKEAEKIKKWKVSTEAELRQKESKLQENRKIIEAQRKAIQELQFGNEKVSLKLEEGIQENKDLIKENNATRHLCNLLKETCARSAEKTKKYEYEREETRQVYMDLNNNIEKMITAFEELRVQAENSRLEMHFKLKEDYEKIQHLEQEYKKEINDKEKQVSLLLIQITEKENKMKDLTFLLEESRDKVNQLEEKTKLQSENLKQSIEKQHHLTKELEDIKVSLQRSVSTQKALEEDLQIATKTICQLTEEKETQMEESNKARAAHSFVVTEFETTVCSLEELLRTEQQRLEKNEDQLKILTMELQKKSSELEEMTKLTNNKEVELEELKKVLGEKETLLYENKQFEKIAEELKGTEQELIGLLQAREKEVHDLEIQLTAITTSEQYYSKEVKDLKTELENEKLKNTELTSHCNKLSLENKELTQETSDMTLELKNQQEDINNNKKQEERMLKQIENLQETETQLRNELEYVREELKQKRDEVKCKLDKSEENCNNLRKQVENKNKYIEELQQENKALKKKGTAESKQLNVYEIKVNKLELELESAKQKFGEITDTYQKEIEDKKISEENLLEEVEKAKVIADEAVKLQKEIDKRCQHKIAEMVALMEKHKHQYDKIIEERDSELGLYKSKEQEQSSLRASLEIELSNLKAELLSVKKQLEIEREEKEKLKREAKENTATLKEKKDKKTQTFLLETPEIYWKLDSKAVPSQTVSRNFTSVDHGISKDKRDYLWTSAKNTLSTPLPKAYTVKTPTKPKLQQRENLNIPIEESKKKRKMAFEFDINSDSSETTDLLSMVSEEETLKTLYRNNNPPASHLCVKTPKKAPSSLTTPGSTLKFGAIRKMREDRWAVIAKMDRKKKLKEAEKLFV
Turning to B5, the “TSA Expression Rate (ER)” value (BRAIN) is reported as 14%; the “TSA Expression Rate (ER)” value (BREAST) is listed as 37%; the “TSA Expression Rate (ER)” value (HCC) is reported as 25%; the “TSA Expression Rate (ER)” value (OVARIAN) is recorded as 15%; the “TSA Expression Rate (ER)” value (PANCREATIC) is reported as 31%; the “TSA Expression Rate (ER)” value (THYROID) is 0%. For the same molecule, the “Expression Rate (ER) %” value is reported as 2% under setting [3]; 6% (TSA expression rate in CRC); 2% under setting [1]; 14% under setting [7]; 12% under setting [4]; 8% (TSA expression rate in Kidney). Besides, the “Expression Rate (ER) %” value is given as 11% under setting [8], 1% under setting [5], 39% under setting [9] and 16% under setting [6].

B6: TAF7L (protein, UniProt Q5H9L4 1-462, looked up)
Transcription initiation …: MECPEGQLPISSENDSTPTVSTSEVTSQQEPQILVDRGSETTYESSADIAGDEGTQIPADEDTQTDADSSAQAAAQAPENFQEGKDMSESQDEVPDEVENQFILRLPLEHACTVRNLARSQSVKMKDKLKIDLLPDGRHAVVEVEDVPLAAKLVDLPCVIESLRTLDKKTFYKTADISQMLVCTADGDIHLSPEEPAASTDPNIVRKKERGREEKCVWKHGITPPLKNVRKKRFRKTQKKVPDVKEMEKSSFTEYIESPDVENEVKRLLRSDAEAVSTRWEVIAEDGTKEIESQGSIPGFLISSGMSSHKQGHTSSEYDMLREMFSDSRSNNDDDEDEDDEDEDEDEDEDEDEDKEEEEEDCSEEYLERQLQAEFIESGQYRANEGTSSIVMEIQKQIEKKEKKLHKIQNKAQRQKDLIMKVENLTLKNHFQSVLEQLELQEKQKNEKLISLQEQLQRFLKK
As for B6, the “TSA Expression Rate (ER)” value is reported as 0% (BREAST) and 0% (THYROID). Also, the “Expression Rate (ER) %” value is given as 10% under setting [3]; 0% (TSA expression rate in CRC); 0% under setting [1]; 10% under setting [4]; 0% (TSA expression rate in Kidney); 9% under setting [5]. Moreover, the “Expression Rate (ER) %” value reads like this: under setting [6], 21%; under setting [2], 0%.
